Test results: PMC8336515, “OTUD7B Deubiquitinates LSD1 to Govern Its Binding Partner Specificity, Homeostasis, and Breast Cancer Metastasis” (Advanced Science, 2021)

Biological target: recombinant LSD1 (UniProt O60341 1-852)
Assay: pull-down; recombinant proteins in vitro (Figure S1F); GST fusion on glutathione-sepharose beads, NETN buffer, 4 °C for 2 h
Conditions: both partners purified

B1: recombinant OTUD7B (enzyme)
chain: MTLDMDAVLSDFVRSTGAEPGLARDLLEGKNWDVNAALSDFEQLRQVHAGNLPPSFSEGSGGSRTPEKGFSDREPTRPPRPILQRQDDIVQEKRLSRGISHASSSIVSLARSHVSSNGGGGGSNEHPLEMPICAFQLPDLTVYNEDFRSFIERDLIEQSMLVALEQAGRLNWWVSVDPTSQRLLPLATTGDGNCLLHAASLGMWGFHDRDLMLRKALYALMEKGVEKEALKRRWRWQQTQQNKESGLVYTEDEWQKEWNELIKLASSEPRMHLGTNGANCGGVESSEEPVYESLEEFHVFVLAHVLRRPIVVVADTMLRDSGGEAFAPIPFGGIYLPLEVPASQCHRSPLVLAYDQAHFSALVSMEQKENTKEQAVIPLTDSEYKLLPLHFAVDPGKGWEWGKDDSDNVRLASVILSLEVKLHLLHSYMNVKWIPLSSDAQAPLAQPESPTASAGDEPRSTPESGDSDKESVGSSSTSNEGGRRKEKSKRDREKDKKRADSVANKLGSFGKTLGSKLKKNMGGLMHSKGSKPGGVGTGLGGSSGTETLEKKKKNSLKSWKGGKEEAAGDGPVSEKPPAESVGNGGSKYSQEVMQSLSILRTAMQGEGKFIFVGTLKMGHRHQYQEEMIQRYLSDAEERFLAEQKQKEAERKIMNGGIGGGPPPAKKPEPDAREEQPTGPPAESRAMAFSTGYPGDFTIPRPSGGGVHCQEPRRQLAGGPCVGGLPPYATFPRQCPPGRPYPHQDSIPSLEPGSHSKDGLHRGALLPPPYRVADSYSNGYREPPEPDGWAGGLRGLPPTQTKCKQPNCSFYGHPETNNFCSCCYREELRRREREPDGELLVHRF
notes: OTUD7B; cDNA in pGEX4T1 (GST) or pET21b (His); also called GST-OTUD7B; His-OTUD7B; source: recombinant; GST fusions expressed in BL21 and purified by glutathione-sepharose beads; not shown: GST or His (GST-OTUD7B and His-OTUD7B were both cloned)
Does B1 bind?
Result: binds
